Data as given in patent publication US20230051266A1 (ABL BIO, published 2023).

How the values were obtained:
Recombinant Human BCMA = target: T1, Recombinant Human BCMA (human, UniProt Q02223 1-54); assay: single clone phage ELISA on coated recombinant BCMA
T1 construct: also called hBCMA; recombinant BCMA
T1 sequence: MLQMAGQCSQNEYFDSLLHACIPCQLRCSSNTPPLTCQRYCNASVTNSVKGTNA
Experimental: Specifically, the phage pool obtained according to Example 1-2 was sequentially diluted, and cultured on a solid medium containing LB-tetracycline/cabenicillin to obtain single colonies. Each colony was cultured on a 96-deep well plate so that OD600 was from 0.5 to 0.7. 20 MOI of helper phage was added to each well, and reacted at 37° C. for 1 hour. Thereafter, kanamycin was added to each well and incubated overnight at 30° C. On the next day, the culture was centrifuged and the supernatant thereof was collected, and then, ELISA was performed to select BCMA-specific phages. Each well of the ELISA plate was coated with 100 ng of recombinant BCMA, and then incubated with PBS-B (3% BSA containing PBS) to prevent nonspecific binding. Thereafter, the plate was washed with PBS. The prepared single clone phage was added to each well and incubated at 37° C. for 1 hour, and the plate was washed three times with PBS-T. For detecting the bounded phages, horseradish peroxidase (HRP) conjugated anti-hemagglutinin (HA) antibody was added to each well. After washing step with PBS-T, tetramethylbenzidine (TMB, Sigma, T0440) was added. Clones, which are with an absorbance that is 0.5 or more at the wavelength of 450 nm and also the absorbance is at least 5 times greater than that of the control with anti-HA HRP alone, were selected. Four antibody clones (B58, 5B5, 5D5, and 5A6), which specifically bind to human BCMA, were selected.

[1] = target: T2, Recombinant Human 4-1BB protein (human, UniProt Q07011 24-186); assay: phage ELISA on 4-1BB antigen-coated plates
T2 construct: also called h4-1BB; 4-1BB antigen

| Binder | binding result (Recombinant Human BCMA) | binding result [1] |
| --- | --- | --- |
| 5B5 (phage antibody clone) (scFv, V domains shown) VH: EVQLLESGGGLVQPGGSLRLSCAASGFTFSGHYWSWVRQAPGKGLEWVSTVSGSGGDTFYADSVKGRFTISRDNSKNTLYLQMNSLRAEDTAVYYCARGHSVMDVWGQGTLVTVSS VL: EIVLTQSPGTLSLSPGERATLSCRASQGIDSYVAWYQQKPGQAPRLLIYDASLRATGIPDRFSGSGSGTDFTLTISRLEPEDFAVYYCQQYNSWPITFGQGTKLEIK | binds |  |
| 5D5 (phage antibody clone) (scFv, V domains shown) VH: EVQLLESGGGLVQPGGSLRLSCAASGFTFSDYGLSWVRQAPGKGLEWVSLIDSSGSSTFYADSVKGRFTISRDNSKNTLYLQMNSLRAEDTAVYYCAKEHGLFDSWGQGTLVTVSS VL: EIVLTQSPGTLSLSPGERATLSCKASQDIDDDINWYQQKPGQAPRLLIYDASLRATGIPDRFSGSGSGTDFTLTISRLEPEDFAVYYCQQSLRTPITFGQGTKLEIK | binds |  |
| 5A6 (phage antibody clone) (scFv, V domains shown) VH: EVQLLESGGGLVQPGGSLRLSCAASGFTFSNYGVHWVRQAPGKGLEWVSYISYSGGTYYNPSLKSRFTISRDNSKNTLYLQMNSLRAEDTAVYYCARDSDDFGFDYWGQGTLVTVSS VL: QSVLTQPPSASGTPGQRVTISCQGDSLRSYYVNWYQQLPGTAPKLLIYDHSKRPTGVPDRFSGSKSGTSASLAISGLRSEDEADYYCQSYDSSTVVFGGGTKLTVL | binds |  |
| AB41 (phage antibody clone) (other, Clone as selected by phage ELISA) VH: QVQLQQSGAEVIKPGASVKLSCKASGYTFSSYWMHWVRQAPGQGLEWIGEINPGNGHTNYNEKFKSRATLTGDTSTSTVYMELSSLRSEDTAVYYCARSFTTARAFAYWGQGTLVTVSS VL: DIVMTQSPAFLSVTPGEKVTITCRASQTISDYLHWYQQKPDQAPKLLIKYASQSISGIPSRFSGSGSGTDFTFTISSLEAEDAATYYCQDGHSFPPTFGQGTKLEIK |  | binds |
